Measurements from patent publication US8940501.

Target: receptor of interferon alpha (printed only as 'receptor'), on Daudi cells
Assay: cell-based or functional assay

In the case of “commercially available IFNα (from UniProt P01563 24-188) (ligand)”, the IC50 (pg/mL), inhibition of Daudi cell proliferation is reported as 15.5 pg/mL.
